Experimental data published in the Human Domainome abundance scans (Beltran et al. 2025).
± gives the uncertainty stated by the source.

B1: Retinoic acid receptor beta, residues 85 to 161; numbered along this chain, P10826 (parent)
chain: YKPCFVCQDKSSGYHYGVSACEGCKGFFRRSIQKNMIYTCHRDKNCVINKVTRNRCQYCRLQKCFEVGMSKESVRND

Variants of: B1
Assay: abundance fitness (aPCA) (normalised: wild type 0, dead -1); higher = more abundant; growth selection in yeast, the domain comes from the species named
Settings: Homo sapiens

Variant | abundance fitness
S31W | -0.09 ± 0.045
S31C | -0.12 ± 0.06
S31T | 0.148 ± 0.056
S31G | -0.774 ± 0.079
S31L | -0.6 ± 0.09
S31A | -0.121 ± 0.041
S31Y | -0.51 ± 0.2
S31N | -0.508 ± 0.29
R30S | -0.644 ± 0.095
R30K | 0.152 ± 0.052
R30V | -1.02 ± 0.14
R30Q | -0.311 ± 0.1
R30E | 0.142 ± 0.049
R30C | -0.694 ± 0.24
R30H | -0.172 ± 0.2
R30A | -0.935 ± 0.14
R30T | -0.707 ± 0.14
R30W | -0.647 ± 0.11
R30D | 0.234 ± 0.072
R30G | -0.702 ± 0.074
R30L | -1.02 ± 0.16

Variant | abundance fitness
N45C | 0.02 ± 0.079
N45A | 0.068 ± 0.057
N45D | -0.151 ± 0.13
D43V | -0.103 ± 0.036
D43I | -0.038 ± 0.087
D43Y | -0.103 ± 0.09
D43F | -0.014 ± 0.071
D43G | 0.012 ± 0.035
D43E | 0.07 ± 0.044
D43L | -0.066 ± 0.037
D43W | -0.169 ± 0.044
D43A | 0.026 ± 0.037
D43N | -0.072 ± 0.073
D43K | -0.001 ± 0.05
D43T | 0.007 ± 0.055
D43S | -0.034 ± 0.045
D43C | -0.436 ± 0.082
D43Q | -0.019 ± 0.074
D43M | -0.076 ± 0.058
D43H | -0.32 ± 0.13
D43R | -0.024 ± 0.033

Variant | abundance fitness
D43P | -0.471 ± 0.12
Q33P | -0.773 ± 0.18
Q33Y | -0.328 ± 0.14
Q33K | -0.016 ± 0.069
Q33W | -0.097 ± 0.045
Q33F | -0.148 ± 0.091
Q33N | 0.066 ± 0.096
Q33D | 0.016 ± 0.073
Q33R | -0.037 ± 0.033
Q33H | -0.175 ± 0.1
Q33I | 0.028 ± 0.088
Q33L | 0.078 ± 0.038
Q33A | 0.105 ± 0.043
Q33C | -0.225 ± 0.087
Q33V | 0.045 ± 0.039
Q33S | -0.014 ± 0.05
Q33G | -0.044 ± 0.032
Q33T | -0.15 ± 0.074
Q33E | -0.017 ± 0.052
Q33M | 0.136 ± 0.051
T39A | -0.017 ± 0.033

Variant | abundance fitness
T39C | -0.047 ± 0.058
T39G | -0.156 ± 0.03
T39F | 0.105 ± 0.058
T39R | -0.01 ± 0.028
T39L | 0.059 ± 0.033
T39D | 0.078 ± 0.058
T39W | -0.097 ± 0.036
T39S | -0.01 ± 0.039
T39H | 0.029 ± 0.067
T39Q | 0.076 ± 0.041
T39Y | -0.009 ± 0.067
T39M | 0.061 ± 0.039
T39K | 0.056 ± 0.047
T39P | -0.327 ± 0.08
T39E | -0.025 ± 0.038
T39N | 0.003 ± 0.056
N35E | 0.159 ± 0.046
N35G | 0.077 ± 0.032
N35F | -0.215 ± 0.11
N35L | -0.235 ± 0.06
